# From patent US20120077964A1 (Merck Sharp & Dohme, published 2012)
# Changes are numbered by the printed parent chain. Where two headings read alike, the source gives them in different places.
# B1: 3BX5C01 Fab (Fab, V domains shown)
# VH: QVQLVQSGAEVKKPGESLKISCKGSGYSFTSYGISWVRQMPGKGLEWMGMIDPSDSFTTYSPSFQGQVTISADKSISTAYLQWSSLKASDTAMYYCARGYYFTYALQPMDHWGQGTLVTVSS
# VL: DIELTQPPSVSVAPGQTARISCSGDNLRDYIVHWYQQKPGQAPVLVIYDDSNRPSGIPERFSGSNSGNTATLTISGTQAEDEADYYCGFDNGGDIDVFGGGTKLTVLG
# B2: 3CX4B08 Fab (Fab, V domains shown)
# VH: QVQLVESGGGLVQPGGSLRLSCAASGFTFSNYTMNWVRQAPGKGLEWVSFISSSSSETYYADSVKGRFTISRDNSKNTLYLQMNSLRAEDTAVYYCARGYGDMVDLWGQGTLVTVSS
# VL: DIELTQPPSVSVAPGQTARISCSGDSIPTYYVAWYQQKPGQAPVLVIYSDTDRPSGIPERFSGSNSGNTATLTISGTQAEDEADYYCQSFDNHGYHVFGGGTKLTVLG
# B3: 1CX1G08 Fab (Fab, V domains shown)
# VH: QVQLVESGGGLVQPGGSLRLSCAASGFTFSDYWVSWVRQAPGKGLEWVSFISYDGSSTYYADSVKGRFTISRDNSKNTLYLQMNSLRAEDTAVYYCARTYFEGVDVWGQGTLVTVSS
# VL: DIELTQPPSVSVAPGQTARISCSGDNIGTYYVHWYQQKPGQAPVLVIYDDSNRPSGIPERFSGSNSGNTATLTISGTQAEDEADYYCGTWDNTSFNLVFGGGTKLTVLG
# B4: 3CX2A06 Fab (Fab, V domains shown)
# VH: QVQLVQSGAEVKKPGESLKISCKGSGYSFSNFWIAWVRQMPGKGLEWMGIIDPSDSWTRYSPSFQGQVTISADKSISTAYLQWSSLKASDTAMYYCARGDGQDFDNWGQGTLVTVSS
# VL: DIQMTQSPSSLSASVGDRVTITCRASQNINSYLNWYQQKPGKAPKLLIYAASSLQSGVPSRFSGSGSGTDFTLTISSLQPEDFAVYYCLQNYDLPNTFGQGTKVEIKR
# B5: 3CX3D02 Fab (Fab, V domains shown)
# VH: QVQLVQSGAEVKKPGESLKISCKGSGYSFTNSWIGWVRQMPGKGLEWMGIIYPSDSYTIYSPSFQGQVTISADKSISTAYLQWSSLKASDTAMYYCARGGGYYYALMDVWAQGTLVTVSS
# VL: B4 VL with N28T, N30S, S31T, Y32W, V85T, N91D, Y92S, D93S, N96L
# Legend:
# Assay in all cases: cell-based or functional assay
# [1] = molecular target: T1, recombinant human PCSK9, V5-, His-tagged (human, UniProt Q8NBP7 31-692, limits assumed)
# T1 sequence (Q8NBP7 31-692 limits assumed): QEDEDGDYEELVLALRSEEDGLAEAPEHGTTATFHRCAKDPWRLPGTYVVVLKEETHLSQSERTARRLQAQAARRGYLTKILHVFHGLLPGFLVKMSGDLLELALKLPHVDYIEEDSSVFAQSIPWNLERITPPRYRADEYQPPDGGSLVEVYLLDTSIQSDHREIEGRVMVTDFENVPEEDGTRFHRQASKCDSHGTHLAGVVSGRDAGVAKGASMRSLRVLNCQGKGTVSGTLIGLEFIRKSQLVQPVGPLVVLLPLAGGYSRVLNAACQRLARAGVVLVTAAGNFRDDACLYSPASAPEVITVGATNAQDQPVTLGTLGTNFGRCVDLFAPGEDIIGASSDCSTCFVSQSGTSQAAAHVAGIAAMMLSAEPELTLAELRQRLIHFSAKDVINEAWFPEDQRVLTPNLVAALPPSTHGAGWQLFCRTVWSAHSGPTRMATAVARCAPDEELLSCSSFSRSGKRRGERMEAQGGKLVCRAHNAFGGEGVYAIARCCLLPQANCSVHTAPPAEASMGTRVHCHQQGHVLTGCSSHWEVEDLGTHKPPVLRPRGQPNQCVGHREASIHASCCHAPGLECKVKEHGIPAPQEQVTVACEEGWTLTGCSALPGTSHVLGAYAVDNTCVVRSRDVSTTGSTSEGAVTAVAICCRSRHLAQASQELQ
# [2] = molecular target: T1, recombinant human PCSK9, V5-, His-tagged; remark: listed apart in the source
# [3] = molecular target: T1, recombinant human PCSK9, V5-, His-tagged; remark: listed apart in the source
# [4] = molecular target: T1, recombinant human PCSK9, V5-, His-tagged; remark: listed apart in the source
# [5] = molecular target: T1, recombinant human PCSK9, V5-, His-tagged; remark: listed apart in the source
binder,measurement,setting,value
B1,"IC50: Fab titrated against PCSK9 fixed at 25 µg/ml, recovery of cellular diI-LDL uptake (Exopolar assay)",[1],1250 nM
B2,"IC50: Fab titrated against PCSK9 fixed at 25 µg/ml, recovery of cellular diI-LDL uptake (Exopolar assay)",[2],127 nM
B3,"IC50: Fab titrated against PCSK9 fixed at 25 µg/ml, recovery of cellular diI-LDL uptake (Exopolar assay)",[3],267 nM
B4,"IC50: Fab titrated against PCSK9 fixed at 25 µg/ml, recovery of cellular diI-LDL uptake (Exopolar assay)",[4],107 nM
B5,"IC50: Fab titrated against PCSK9 fixed at 25 µg/ml, recovery of cellular diI-LDL uptake (Exopolar assay)",[5],269 nM
